Patent US20130288983A1 (Amgen, published 2013)

T1: Activin A (Homo sapiens (Human), UniProt P08476 311-426)
T1 sequence: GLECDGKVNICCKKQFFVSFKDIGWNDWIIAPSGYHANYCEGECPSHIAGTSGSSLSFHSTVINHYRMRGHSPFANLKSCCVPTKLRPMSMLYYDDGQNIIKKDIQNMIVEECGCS


The binders below were run against T1, Activin A (assay: Biacore SPR grade, COS transient conditioned media, 20 nM activin A).
Procedure: Qualitative BIAcore® Assay. E28 and R40 were substituted respectively with other natural amino acids in fusions with IgG1 Fc as described above. Each vActRIIB-IgG1Fc sample from conditioned media was captured on goat anti-human IgG1 Fc antibody (Jackson Immuno Research, cat#109-005-098, lot 63550) coated CMS surface. 20 nM of Activin A was injected over captured sample surfaces using BIACore2000 (BIACore Life Sciences, Piscataway, N.J.). The resulting sensorgrams were normalized to the captured RL (500 RU) of vActRIIB-IgG1Fc variants. The normalized binding response (RU) for some variants are shown in Table 2, and is further described below. Relative binding affinity for activin was also determined by Biacore measurements using conditioned media obtained from mammalian cell expression. Activin A (20 nM) was used to capture soluble receptor polypeptide in the conditioned media and measured SPR signals were normalized. Normalized SPR of +++++: >60, ++++:40-60, +++:20-40, ++:10-20, +: 5-10, −: <5.

Binder	normalized SPR signal [ru]
ActRIIB-IgG1 Fc E28F, linker GGGGS (Fc fusion, Tested from conditioned media) SGRGEAETRFCIYYNANWELERTNQSGLERCEGEQDKRLHCYASWRNSSGTIELVKKGCWLDDFNCYDRQECVATEENPQVYFCCCEGNFCNERFTHLPEAGGPEVTYEPPPTAPTGGGGSAPELLGGPSVFLFPPKPKDILMISRTPEVTCVVVDVSHEDPEVKFNWYVGGVEVHNAKTKPREEQYNSTYRVVSVLTVLHQDWLNGKEYKCKVSNKALPAPIEKTISKAKGQPREPQVYTLPPSRDELTKNQVSLTCLVKGFYPSDIAVEWESNGQPENNYKTTPPVLDSDGSFFLYSKLTVDKSRWQQGNVFSCSVMHEALHNHYTQKSLSLSPGK	20 to 40
ActRIIB-IgG1 Fc E28H, linker GGGGS (Fc fusion, Tested from conditioned media) SGRGEAETRHCIYYNANWELERTNQSGLERCEGEQDKRLHCYASWRNSSGTIELVKKGCWLDDFNCYDRQECVATEENPQVYFCCCEGNFCNERFTHLPEAGGPEVTYEPPPTAPTGGGGSAPELLGGPSVFLFPPKPKDILMISRTPEVTCVVVDVSHEDPEVKFNWYVGGVEVHNAKTKPREEQYNSTYRVVSVLTVLHQDWLNGKEYKCKVSNKALPAPIEKTISKAKGQPREPQVYTLPPSRDELTKNQVSLTCLVKGFYPSDIAVEWESNGQPENNYKTTPPVLDSDGSFFLYSKLTVDKSRWQQGNVFSCSVMHEALHNHYTQKSLSLSPGK	5 to 10
ActRIIB-IgG1 Fc E28I, linker GGGGS (Fc fusion, Tested from conditioned media) SGRGEAETRICIYYNANWELERTNQSGLERCEGEQDKRLHCYASWRNSSGTIELVKKGCWLDDFNCYDRQECVATEENPQVYFCCCEGNFCNERFTHLPEAGGPEVTYEPPPTAPTGGGGSAPELLGGPSVFLFPPKPKDILMISRTPEVTCVVVDVSHEDPEVKFNWYVGGVEVHNAKTKPREEQYNSTYRVVSVLTVLHQDWLNGKEYKCKVSNKALPAPIEKTISKAKGQPREPQVYTLPPSRDELTKNQVSLTCLVKGFYPSDIAVEWESNGQPENNYKTTPPVLDSDGSFFLYSKLTVDKSRWQQGNVFSCSVMHEALHNHYTQKSLSLSPGK	10 to 20
ActRIIB-IgG1 Fc E28K, linker GGGGS (Fc fusion, Tested from conditioned media) SGRGEAETRKCIYYNANWELERTNQSGLERCEGEQDKRLHCYASWRNSSGTIELVKKGCWLDDFNCYDRQECVATEENPQVYFCCCEGNFCNERFTHLPEAGGPEVTYEPPPTAPTGGGGSAPELLGGPSVFLFPPKPKDILMISRTPEVTCVVVDVSHEDPEVKFNWYVGGVEVHNAKTKPREEQYNSTYRVVSVLTVLHQDWLNGKEYKCKVSNKALPAPIEKTISKAKGQPREPQVYTLPPSRDELTKNQVSLTCLVKGFYPSDIAVEWESNGQPENNYKTTPPVLDSDGSFFLYSKLTVDKSRWQQGNVFSCSVMHEALHNHYTQKSLSLSPGK	5 to 10
ActRIIB-IgG1 Fc E28L, linker GGGGS (Fc fusion, Tested from conditioned media) SGRGEAETRLCIYYNANWELERTNQSGLERCEGEQDKRLHCYASWRNSSGTIELVKKGCWLDDFNCYDRQECVATEENPQVYFCCCEGNFCNERFTHLPEAGGPEVTYEPPPTAPTGGGGSAPELLGGPSVFLFPPKPKDILMISRTPEVTCVVVDVSHEDPEVKFNWYVGGVEVHNAKTKPREEQYNSTYRVVSVLTVLHQDWLNGKEYKCKVSNKALPAPIEKTISKAKGQPREPQVYTLPPSRDELTKNQVSLTCLVKGFYPSDIAVEWESNGQPENNYKTTPPVLDSDGSFFLYSKLTVDKSRWQQGNVFSCSVMHEALHNHYTQKSLSLSPGK	5 to 10
ActRIIB-IgG1 Fc E28M, linker GGGGS (Fc fusion, Tested from conditioned media) SGRGEAETRMCIYYNANWELERTNQSGLERCEGEQDKRLHCYASWRNSSGTIELVKKGCWLDDFNCYDRQECVATEENPQVYFCCCEGNFCNERFTHLPEAGGPEVTYEPPPTAPTGGGGSAPELLGGPSVFLFPPKPKDILMISRTPEVTCVVVDVSHEDPEVKFNWYVGGVEVHNAKTKPREEQYNSTYRVVSVLTVLHQDWLNGKEYKCKVSNKALPAPIEKTISKAKGQPREPQVYTLPPSRDELTKNQVSLTCLVKGFYPSDIAVEWESNGQPENNYKTTPPVLDSDGSFFLYSKLTVDKSRWQQGNVFSCSVMHEALHNHYTQKSLSLSPGK	10 to 20
